Square brackets hold non-standard residues; d marks the D form. Pmp = N[C@@H](Cc1ccc(CP(=O)(O)O)cc1)C(=O)O; pY = N[C@@H](Cc1ccc(OP(=O)(O)O)cc1)C(=O)O; 2Nal = N[C@@H](Cc1ccc2ccccc2c1)C(=O)O
Experiments:
Grb2 SH2 domain [1] = target: T1, Grb2 SH2 domain (UniProt P62993 60-152, limits assumed); experiment: fluorescence anisotropy, direct binding of the FAM-labeled ligand to the Grb2 SH2 domain
T1 construct: domain: SH2 domain

[2] = target: T2, Kelch-like ECH-associated protein-1 (Keap1) (UniProt Q14145 321-609, limits assumed); experiment: fluorescence anisotropy competition assay; reference BH15
T2 sequence (Q14145 321-609 limits assumed): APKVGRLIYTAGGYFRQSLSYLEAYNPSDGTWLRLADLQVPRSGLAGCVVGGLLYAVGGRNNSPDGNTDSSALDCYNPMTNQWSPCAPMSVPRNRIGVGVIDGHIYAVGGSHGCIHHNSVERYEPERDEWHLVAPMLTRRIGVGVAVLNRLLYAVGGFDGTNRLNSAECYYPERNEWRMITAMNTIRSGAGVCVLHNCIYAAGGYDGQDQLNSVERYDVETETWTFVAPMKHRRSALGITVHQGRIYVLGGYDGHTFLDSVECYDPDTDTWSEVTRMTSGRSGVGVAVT
Method: (§1) The percentage of inhibition was calculated from the fluorescence anisotropy decrease by using equation
(§2) and plotted against the inhibitor concentration.

[3] = target: T2, Kelch-like ECH-associated protein-1 …; experiment: fluorescence anisotropy competition assay, displacement of the fluorescent Nrf2 peptide from Keap1
Method: as §1, §2

Grb2 SH2 domain [4] = target: T1, Grb2 SH2 domain; experiment: binding to the Grb2 SH2 domain; reference BH23
Grb2 SH2 domain [5] = target: T1, Grb2 SH2 domain; experiment: binding to the Grb2 SH2 domain; assay not named, presumably the same FP competition assay
Grb2 SH2 domain [6] = target: T1, Grb2 SH2 domain; experiment: FP-based competition assay, unlabeled peptide against the FAM-labeled reporter ligand on the Grb2 SH2 domain
[7] = target: T2, Kelch-like ECH-associated protein-1 …; experiment: fluorescence anisotropy competition assay; reference BH17
Method: as §1, §2

[8] = target: T2, Kelch-like ECH-associated protein-1 …; experiment: fluorescence anisotropy competition assay; reference peptide not named (34-fold matches BH17, […] nM)
Method: as §1, §2

[9] = target: T2, Kelch-like ECH-associated protein-1 …; experiment: fluorescence anisotropy competition assay; reference BH13
Method: as §1, §2

T1 sequence (P62993 60-152 limits assumed): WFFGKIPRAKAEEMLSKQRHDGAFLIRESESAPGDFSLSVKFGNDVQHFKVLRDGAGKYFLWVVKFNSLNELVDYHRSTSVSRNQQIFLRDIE

cyclo(AApYVNFFQ)-β-Ala-K(FAM) (peptide)
Kd (Grb2 SH2 domain [1]): 92 nM

B1: BH16 (peptide)
peptide: cyclo(FF[2Nal][dR][dP]PRRFLNAETGE)
SMILES: CC(C)C[C@@H]1NC(=O)[C@H](Cc2ccccc2)NC(=O)[C@H](CCCNC(=N)N)NC(=O)[C@H](CCCNC(=N)N)NC(=O)[C@@H]2CCCN2C(=O)[C@H]2CCCN2C(=O)[C@@H](CCCNC(=N)N)NC(=O)[C@H](Cc2ccc3ccccc3c2)NC(=O)[C@H](Cc2ccccc2)NC(=O)[C@H](Cc2ccccc2)NC(=O)[C@H](CCC(=O)O)NC(=O)CNC(=O)[C@H]([C@@H](C)O)NC(=O)[C@H](CCC(=O)O)NC(=O)[C@H](C)NC(=O)[C@H](CC(N)=O)NC1=O
notes: also called cyclo(F-F-Φ-r-p-P-R-R-F-L-N-A-E-T-G-E)
fold decrease in affinity vs BH15 [2]: ~10 fold | IC50 [3]: 1470 nM

B2: BH26 (peptide)
peptide: cyclo(F[2Nal][dR][dP]PRR[Pmp]VN)
SMILES: CC(C)[C@@H]1NC(=O)[C@H](Cc2ccc(CP(=O)(O)O)cc2)NC(=O)[C@H](CCCNC(=N)N)NC(=O)[C@H](CCCNC(=N)N)NC(=O)[C@@H]2CCCN2C(=O)[C@H]2CCCN2C(=O)[C@@H](CCCNC(=N)N)NC(=O)[C@H](Cc2ccc3ccccc3c2)NC(=O)[C@H](Cc2ccccc2)NC(=O)[C@H](CC(N)=O)NC1=O
fold less potent than BH23 (Grb2 SH2 domain [4]): ~3 fold | IC50 (Grb2 SH2 domain [5]): 1370 nM

B3: BH23 (peptide)
peptide: cyclo(F[2Nal][dR][dP]PRR[pY]VN)
notes: also called cyclo(pY-V-N-F-Φ-r-p-P-R-R); cyclo[F-Φ-r-p-P-R-R-pY-V-N)
IC50 (Grb2 SH2 domain [6]): 400 nM

B4: BH13 (peptide)
peptide: cyclo(FF[2Nal][dR][dP]PRRFQLDPETGE)
SMILES: CC(C)C[C@@H]1NC(=O)[C@H](CCC(N)=O)NC(=O)[C@H](Cc2ccccc2)NC(=O)[C@H](CCCNC(=N)N)NC(=O)[C@H](CCCNC(=N)N)NC(=O)[C@@H]2CCCN2C(=O)[C@H]2CCCN2C(=O)[C@@H](CCCNC(=N)N)NC(=O)[C@H](Cc2ccc3ccccc3c2)NC(=O)[C@H](Cc2ccccc2)NC(=O)[C@H](Cc2ccccc2)NC(=O)[C@H](CCC(=O)O)NC(=O)CNC(=O)[C@H]([C@@H](C)O)NC(=O)[C@H](CCC(=O)O)NC(=O)[C@@H]2CCCN2C(=O)[C@H](CC(=O)O)NC1=O
notes: The underlining is not visible, so the entry may be only part of the peptide; also called cyclo(F-F-Φ-r-p-P-R-R-F-Q-L-D-P-E-T-G-E)
IC50 [3]: 153 nM

B5: BH18 (peptide)
peptide: cyclo(F[2Nal][dR][dP]PRRFLNAETGE)
SMILES: CC(C)C[C@@H]1NC(=O)[C@H](Cc2ccccc2)NC(=O)[C@H](CCCNC(=N)N)NC(=O)[C@H](CCCNC(=N)N)NC(=O)[C@@H]2CCCN2C(=O)[C@H]2CCCN2C(=O)[C@@H](CCCNC(=N)N)NC(=O)[C@H](Cc2ccc3ccccc3c2)NC(=O)[C@H](Cc2ccccc2)NC(=O)[C@H](CCC(=O)O)NC(=O)CNC(=O)[C@H]([C@@H](C)O)NC(=O)[C@H](CCC(=O)O)NC(=O)[C@H](C)NC(=O)[C@H](CC(N)=O)NC1=O
notes: also called cyclo(F-Φ-r-p-P-R-R-F-L-N-A-E-T-G-E)
fold decrease in affinity vs BH17 [7]: ~10 fold | IC50 [3]: 1400 nM

B6: BH25 (peptide)
peptide: cyclo(FA[dA][dP]PRR[pY]VN)
SMILES: CC(C)[C@@H]1NC(=O)[C@H](Cc2ccc(OP(=O)(O)O)cc2)NC(=O)[C@H](CCCNC(=N)N)NC(=O)[C@H](CCCNC(=N)N)NC(=O)[C@@H]2CCCN2C(=O)[C@H]2CCCN2C(=O)[C@@H](C)NC(=O)[C@H](C)NC(=O)[C@H](Cc2ccccc2)NC(=O)[C@H](CC(N)=O)NC1=O
notes: Control peptide: the Nal-arg of BH23 is replaced with Ala-ala; also called cyclo[F-A-a-p-P-R-R-pY-V-N); negative control peptide BH25
IC50 (Grb2 SH2 domain [6]): 100 nM

B7: BH19 (peptide)
peptide: cyclo(F[2Nal][dR][dP]PRRFNAETGE)
SMILES: C[C@@H]1NC(=O)[C@H](CC(N)=O)NC(=O)[C@H](Cc2ccccc2)NC(=O)[C@H](CCCNC(=N)N)NC(=O)[C@H](CCCNC(=N)N)NC(=O)[C@@H]2CCCN2C(=O)[C@H]2CCCN2C(=O)[C@@H](CCCNC(=N)N)NC(=O)[C@H](Cc2ccc3ccccc3c2)NC(=O)[C@H](Cc2ccccc2)NC(=O)[C@H](CCC(=O)O)NC(=O)CNC(=O)[C@H]([C@@H](C)O)NC(=O)[C@H](CCC(=O)O)NC1=O
notes: also called cyclo(F-Φ-r-p-P-R-R-F-N-A-E-T-G-E)
fold reduction in inhibition potency [8]: 34 fold | IC50 [3]: 5540 nM

B8: BH14 (peptide)
peptide: cyclo(FF[2Nal][dR][dP]PRRFQLNAETGE)
SMILES: CC(C)C[C@@H]1NC(=O)[C@H](CCC(N)=O)NC(=O)[C@H](Cc2ccccc2)NC(=O)[C@H](CCCNC(=N)N)NC(=O)[C@H](CCCNC(=N)N)NC(=O)[C@@H]2CCCN2C(=O)[C@H]2CCCN2C(=O)[C@@H](CCCNC(=N)N)NC(=O)[C@H](Cc2ccc3ccccc3c2)NC(=O)[C@H](Cc2ccccc2)NC(=O)[C@H](Cc2ccccc2)NC(=O)[C@H](CCC(=O)O)NC(=O)CNC(=O)[C@H]([C@@H](C)O)NC(=O)[C@H](CCC(=O)O)NC(=O)[C@H](C)NC(=O)[C@H](CC(N)=O)NC1=O
notes: also called cyclo(F-F-Φ-r-p-P-R-R-F-Q-L-N-A-E-T-G-E)
fold decrease in affinity vs BH13 [9]: ~10 fold | IC50 [3]: 1400 nM

Source: patent US20190284240A1 (OHIO STATE INNOVATION FOUNDATION, published 2019)
